B1: PFR1 protein: PFR1 recombinant protein of L. infantum expressed in a prokaryotic expression system and purified by affinity chromatography (protein, listed as Leishmania infantum)
chain: MMTPEDATGLEAARKQKIHNLKLKTACLENEELVQELHISDWSETQRQKLRGAHEKGEELLASVEVGTKWNLMEAYDLAKLMRVCGLEMSQRELYRPEDKPQFMDIIGVKKVLQDLRQNRNKTRVVSFTQLIDNSIAKMEKVEEELRRSQLDATQLAQVPTRTVKMMEDIMNATQIQNALASTDDQMQTQLAQLEKTNEIQNVAMHDGETQVAEEQMWTKVQLQERLIELLKDKFGLIGKCEEENAQFKEIYEVQKQANQETSQMKDAKRRLRQRCETDLKHIQDAIQKADLEDAEAVKRYPRNKERSERAIKENEEMQEEAWNKIQDLERQLQNLGTDRFDEVKRRIEEVDREEKRRVENAQFLEIAAQHKKLLELTVYNCDLAMRCTGLVEELVSEGCAGVKARYDKTNQDLAALRLEVHKEHLEYFRMLYLTLGSLIYKKEKRLEEIDRNIRLAHIQLEFCVETFDPNAKKHADMKKELYRLRQGVEEELAMLKEKQAAALDDFKESEEALDAAGIEFSHPVDENNEEVLTRRSKMVEYKSHLTKEEEVRIAAEREEIKRARLLRSGGESAAAQITSGSMNADYAASAQLEL
modifications: /mol_type=”protein“ /organism=”Leishmania infantum“; REGION 1..595 ”PFR1 protein aminoacids“; REGION 160..595 ”SEQ ID No 9“; REGION 160..548 ”SEQ ID No 10“; REGION 160..385 ”SEQ ID No 11“; PEPTIDE 103..113 ”SEQ ID No 1“; PEPTIDE 150..159 ”SEQ ID No 2“; PEPTIDE 165..173 ”SEQ ID No 4“; PEPTIDE 204..212 ”SEQ ID No 5“; PEPTIDE 222..230 ”SEQ ID No 6“; PEPTIDE 373..382 ”SEQ ID No 3“

System: alveolar macrophages of naive rat
Test: Nitric oxide production by alveolar macrophages stimulated with recombinant protein
Type: cell-based
Settings: for NO activation in the presence of polymyxin B: plus polymyxin B (LPS activity-induced inhibitor)
Excerpt: FIG. 2. Measurement of Nitric Oxide (NO) concentration in the supernatant of macrophages culture stimulated with lipopolysaccharide (LPS); lipopolysaccharide+polymyxin B (LPS+PolB); purified PFR-1 protein (PFR-1); purified PFR-1 protein+polymyxin B (PFR1+PolB); L-NG-monomethyl arginine citrate (LNMMA); purified PFR-1 protein+L-NG-monomethyl arginine citrate (PFR1+LNMMA). Concentration is expressed in μmol/liter.
PFR1 protein of Leishmania infantum is encompassed within the family of characteristic proteins of paraflagellar rod proteins from kinetoplastids. In FIG. 1, we show the PFR1 recombinant protein of L. infantum expressed in a prokaryotic expression system and purified by affinity chromatography. […] This activation of nitric oxide production confers to the aforementioned protein a relevant immunological feature because NO favors the clearance of the amastigotes of Leishmania that multiply within the host macrophages. In FIG. 2, the values of NO production by these alveolar macrophages are collected by stimulating them with LPS (control) and the PFR1 protein.

| Molecule | NO activation in the presence of polymyxin B | production of nitric oxide (NO) by alveolar macrophages (naive rat alveolar macrophages stimulated with the protein) | NO activation in the presence of LNMMA (plus L-NG-monomethyl arginine, nitric oxide synthase inhibitor) |
| --- | --- | --- | --- |
| lipopolysaccharide [LPS, reference compound] | inhibited by the presence of polymyxin B | – | – |
| B1 | unlike the one detected for PFR1 protein, the activation observed for LPS is inhibited by the presence of polymyxin B | ability to activate the production of nitric oxide (NO) | inhibits the NO activation induced by the PFR1 protein |

Reference: patent US9926349B2, “Chimeric molecule useful in immunotherapy for leishmaniasis, which includes a fragment of the PFR1 protein of leishmania infantum with specific immunodominant epitopes” (priority 2011, dated 2018)
